Read-outs that look alike come from different tables or passages of the source.
How the values were obtained:
Assay in all cases: BLI (Octet HTX)
[1] = target: T1, Recombinant Human DLL3 Protein (amino acids Ala27-Ala479, cat #9749-DL, R&D Systems) (UniProt Q9NYJ7 27-479)
T1 chain: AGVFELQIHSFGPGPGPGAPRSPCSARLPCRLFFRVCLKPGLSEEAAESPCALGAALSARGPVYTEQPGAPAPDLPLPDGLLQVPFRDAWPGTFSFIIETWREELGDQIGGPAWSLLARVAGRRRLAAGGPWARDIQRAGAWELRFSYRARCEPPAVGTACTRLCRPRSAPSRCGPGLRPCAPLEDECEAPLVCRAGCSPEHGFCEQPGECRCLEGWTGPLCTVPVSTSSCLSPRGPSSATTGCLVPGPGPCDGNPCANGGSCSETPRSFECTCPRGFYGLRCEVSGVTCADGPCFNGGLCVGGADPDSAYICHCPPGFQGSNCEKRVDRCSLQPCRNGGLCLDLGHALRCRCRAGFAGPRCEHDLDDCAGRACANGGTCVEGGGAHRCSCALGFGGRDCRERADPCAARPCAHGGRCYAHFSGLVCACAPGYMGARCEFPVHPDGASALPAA

[2] = target: T1, Recombinant Human DLL3 Protein (amino …)
[3] = target: T1, Recombinant Human DLL3 Protein (amino …)

B1: 10-O18-A (antibody, V domains shown)
VH: QVQLQESGPGLVKPSETLSLTCTVSGGSINSYYWSWIRQPPGKGLEWIGYIFYSGITNYNPSLKSRVTISLDTSKNQFSLKLSSVTAADTAVYYCARIGVAGFYFDYWGQGTLVTVSS
VL: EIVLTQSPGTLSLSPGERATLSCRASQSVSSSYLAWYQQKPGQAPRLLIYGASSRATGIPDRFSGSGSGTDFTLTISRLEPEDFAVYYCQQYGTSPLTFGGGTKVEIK
[1]
  Kd: 0.602 nM
[2]
  Kd: 0.62 nM

B2: 2-C8-A (antibody, V domains shown)
VH: EVQLVESGGGLVQPGGSQRLSCAASGFTFSSYWMNWVRQAPGKGLEWVANIKEDGSEKYYVDSVKGRFTISRDNAKNSLYLQMNSLRAEDTAVYYCARDPGWAPFDYWGQGTLVTVSS
VL: DIQMSQSPSSLSASVGDRVTITCRASQGISNYLAWFQQKPGKAPKSLIYAASSLQSGVPSKFSGSGSGTDFTLAISSLQPEDFATYYCQQYNSFPYTFGQGTTLEIK
[1]
  Kd: 0.668 nM
[2]
  Kd: 0.668 nM

B3: 7-I1-B (antibody, V domains shown)
VH: EVQLVESGGGLVKPGGSLRLSCAASGFTFSNTWMSWVRQAPGKGLEWVGRIKSKSDGGTTDYAAPVKGRFTISRDDSKNTLYLQMNSLKTEDTAVYYCTQYYWNSFDYWGQGTLVTVSS
VL: not shown
[3]
  Kd: 0.686 nM
[2]
  Kd: 0.68 nM

B4: 6-G23-F (antibody, V domains shown)
VH: QVQLVQSGAEVKKPGASVKVSCKASGYTFTSYYIHWVRQAPGQGLEWMGIIDPSDGSTNYAQKFQGRVTMTRDTSTSTVYMELSSLRSEDTAVYYCARDREYNYYGLDVWGQGTTVTVSS
VL: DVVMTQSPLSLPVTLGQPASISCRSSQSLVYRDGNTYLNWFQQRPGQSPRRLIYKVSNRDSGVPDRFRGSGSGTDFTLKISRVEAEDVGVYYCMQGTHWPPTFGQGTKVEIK
[3]
  Kd: 0.16 nM
[2]
  Kd: 0.16 nM
